# Source: the supplement of paper PMC10201428
# ± gives the standard deviation of the averaged measurements.
# System: VchCAST RNA-guided transposition machinery (E. coli BL21(DE3) host, lacZ target)
# Experiment: relative integration efficiency (T-RL orientation) vs wild-type transposon end (log2 (normalized fold change)); transposon end mutated: left end; higher = more efficient transposition
# Description: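 Pooled, barcoded VchCAST (Tn6677) mini-transposon donor libraries; each variable transposon-end sequence sits in a fixed pDonor mini-transposon context (10-bp barcode and cargo not included). Left- or right-end libraries were co-transformed with pEffector (TniQ-Cascade, TnsABC, lacZ crRNA, T7, 0.1 mM IPTG) into E. coli BL21(DE3) and grown 18 h at 37 C. T-LR and T-RL junction amplicons were sequenced; output/input barcode fold change was normalised to the mean of four wild-type barcodes and log2-transformed. Two biological replicates; zero-count/undetected variants carry floor values (-10 / -15), censored here. Barcode uncoupling by PCR recombination adds noise.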
row,Sequence,relative integration efficiency (log2)
1,AATGTTGTTGATGCAACCATAAAGTGATATTTAATAATTATTCAACCATAAAGTGATATTTAACTTACAACCATATATTGATATCTCACAAAACAACCATAAGTTGATATTTTTGTGAATCGAGTATTTCAGCAAAACTACTGCAGTAAGAA,-3.81 ± 1.1
2,AATGTTGTTGATGCAACCATAAAGTGATATTTAATAATTATTTAGCCGACTACCAGGCCAACACCCCACCAACGCGCGGTCGCGAGACACCCCACCAACGCCTGGTCGCGGGGGTGTCCGATCTGATTTCAGCAAAACTACTGCAGTAAGAA,-7.02 ± 1.2
3,AATGTTGTTGATGCAACCATAAAGTGATATTTAATAATTATTTATAACAACCATAAAGTGATATTTACAACCATATATTGATATCTCACAAAACAACCATAAGTTGATATTTTTGTGAATCGAGTATTTCAGCAAAACTACTGCAGTAAGAA,-6.17 ± 1.2
4,AATGTTGTTGATGCAACCATAAAGTGATATTTAATAATTATTTATAACAACCATATATTGATATCTCACAAAACAACCATAAGTTGATATTTTTCAGCAACTTAACCACAAAATGTGAATCGAGTATTTCAGCAAAACTACTGCAGTAAGAA,-5.63 ± 0.81
5,AATGTTGTTGATGCAACCATAAAGTGATATTTAATAATTATTTATAACAACCATATATTGATATCTCACAAAACAACCATAAGTTGATATTTTTGTGAATCGAGTATTTCAGCAAAACTACTGCAGTAAGAAAGTTACTTCGTGGTATGGGA,-6.45 ± 1
6,AATGTTGTTGATGCAACCATAAAGTGATATTTAATAATTATTTATAATCACAACCATATATTGATATCTCGCAACTTAACCACAAAAACAAAACAACCATAAGTTGATATTTTTGTGAATCGAGTATTTCAGCAAAACTACTGCAGTAAGAA,-6.71 ± 0.83
7,AATGTTGTTGATGCAACCATAAAGTGATATTTAATAATTATTTATAATCAGACCAGGCCAACACCCCACCAACGCGCGGTCGCGAGACACCCCACCAACGCCTGGTCGCGGGGGTGTCCGATCTGATTTCAGCAAAACTACTGCAGTAAGAA,-6.56 ± 1.8
8,AATGTTGTTGATGCAACCATAAAGTGATATTTAATAATTATTTATAATCAGCAAAGGCCAACACCCCACCAACGCGCGGTCGCGAGACACCCCACCAACGCCTGGTCGCGGGGGTGTCCGATCTGATTTCAGCAAAACTACTGCAGTAAGAA,-6.56 ± 1.3
9,AATGTTGTTGATGCAACCATAAAGTGATATTTAATAATTATTTATAATCAGCAACAACCATATATTGATATCTCACAAAACAACCATAAGTTGATATTTTTGTGAATCGAGTATTTCAGCAAAACTACTGCAGTAAGAAAGTTACTTCGTGG,-7.72 ± 1.1
10,AATGTTGTTGATGCAACCATAAAGTGATATTTAATAATTATTTATAATCAGCAACAACCATATATTGATATCTCCTTAACCACAAAAACAAAACAACCATAAGTTGATATTTTTGTGAATCGAGTATTTCAGCAAAACTACTGCAGTAAGAA,-6.46 ± 1.4
11,AATGTTGTTGATGCAACCATAAAGTGATATTTAATAATTATTTATAATCAGCAACCAACCATATATTGATATCTCACAAAACAACCATAAGTTGATATTTTTGTGAATCGAGTATTTCAGCAAAACTACTGCAGTAAGAAAGTTACTTCGTG,-6.44 ± 0.52
12,AATGTTGTTGATGCAACCATAAAGTGATATTTAATAATTATTTATAATCAGCAACCAACCATATATTGATATCTCTTAACCACAAAAACAAAACAACCATAAGTTGATATTTTTGTGAATCGAGTATTTCAGCAAAACTACTGCAGTAAGAA,-5.89 ± 1.6
13,AATGTTGTTGATGCAACCATAAAGTGATATTTAATAATTATTTATAATCAGCAACCATATATTGATATCTCACAAAACAACCATAAGTTGATATTTTTGTGAATCGAGTATTTCAGCAAAACTACTGCAGTAAGAAAGTTACTTCGTGGTAT,-8.36 ± 0.35
14,AATGTTGTTGATGCAACCATAAAGTGATATTTAATAATTATTTATAATCAGCAACCATATATTGATATCTCCAACTTAACCACAAAAACAAAACAACCATAAGTTGATATTTTTGTGAATCGAGTATTTCAGCAAAACTACTGCAGTAAGAA,-6.03 ± 0.52
15,AATGTTGTTGATGCAACCATAAAGTGATATTTAATAATTATTTATAATCAGCAACGGCCAACACCCCACCAACGCGCGGTCGCGAGACACCCCACCAACGCCTGGTCGCGGGGGTGTCCGATCTGATTTCAGCAAAACTACTGCAGTAAGAA,-6.79 ± 1.6
16,AATGTTGTTGATGCAACCATAAAGTGATATTTAATAATTATTTATAATCAGCAACTCAACCATATATTGATATCTCTAACCACAAAAACAAAACAACCATAAGTTGATATTTTTGTGAATCGAGTATTTCAGCAAAACTACTGCAGTAAGAA,-4.84 ± 0.92
17,AATGTTGTTGATGCAACCATAAAGTGATATTTAATAATTATTTATAATCAGCAACTTAACCAACCATATATTGATATCTCACAAAACAACCATAAGTTGATATTTTTGTGAATCGAGTATTTCAGCAAAACTACTGCAGTAAGAAAGTTACT,-5.17 ± 1.5
18,AATGTTGTTGATGCAACCATAAAGTGATATTTAATAATTATTTATAATCAGCAACTTAACCAACCATATATTGATATCTCCACAAAAACAAAACAACCATAAGTTGATATTTTTGTGAATCGAGTATTTCAGCAAAACTACTGCAGTAAGAA,-2.66 ± 0.88

row,Sequence,relative integration efficiency (log2)
1,AATGTTGTTGATGCAACCATAAAGTGATATTTAATAATTATTTATAATCAGCAACTTAACCACAAAACAACACGCGCGGTCGCGAGACACCCCACCAACGCCTGGTCGCGGGGGTGTCCGATCTGATTTCAGCAAAACTACTGCAGTAAGAA,-7.6 ± 2.4
2,AATGTTGTTGATGCAACCATAAAGTGATATTTAATAATTATTTATAATCAGCAACTTAACCACAAAACAACCATATATGTCGCGAGACACCCCACCAACGCCTGGTCGCGGGGGTGTCCGATCTGATTTCAGCAAAACTACTGCAGTAAGAA,-6.15 ± 1.3
3,AATGTTGTTGATGCAACCATAAAGTGATATTTAATAATTATTTATAATCAGCAACTTAACCACAAAACAACCATATATTGATAACAAAACAACCATAAGTTGATATTTTTGTGAATCGAGTATTTCAGCAAAACTACTGCAGTAAGAAAGTT,-4.08 ± 0.82
4,AATGTTGTTGATGCAACCATAAAGTGATATTTAATAATTATTTATAATCAGCAACTTAACCACAAAACAACCATATCGGTCGCGAGACACCCCACCAACGCCTGGTCGCGGGGGTGTCCGATCTGATTTCAGCAAAACTACTGCAGTAAGAA,-6.09 ± 0.98
5,AATGTTGTTGATGCAACCATAAAGTGATATTTAATAATTATTTATAATCAGCAACTTAACCACAAAAGTTGGTATATAACTATAGAGACAAAAGTTGGTATTCAACTATAAAATGTGAATCGAGTATTTCAGCAAAACTACTGCAGTAAGAA,-6.13 ± 2.2
6,AATGTTGTTGATGCAACCATAAAGTGATATTTAATAATTATTTATAATCAGCAACTTAACCACAAAATGTGAATCGAGTATTTCAGCAAAACTACTGCAACCATATATTGATATCTCACAAAACAACCATAAGTTGATATTTTCAGTAAGAA,-6.39 ± 0.78
7,AATGTTGTTGATGCAACCATAAAGTGATATTTAATAATTATTTATAATCAGCAACTTAACCACAAAATGTGAATCGAGTATTTCAGCCAACCATATATTGATATCTCACAAAACAACCATAAGTTGATATTTTAAAACTACTGCAGTAAGAA,-5.8 ± 1.9
8,AATGTTGTTGATGCAACCATAAAGTGATATTTAATAATTATTTATAATCAGCAACTTAACCACAAACACCAACGCGCGGTCGCGAGACACCCCACCAACGCCTGGTCGCGGGGGTGTCCGATCTGATTTCAGCAAAACTACTGCAGTAAGAA,-6.34 ± 0.81
9,AATGTTGTTGATGCAACCATAAAGTGATATTTAATAATTATTTATAATCAGCAACTTAACCACAACCATATATTGATATCTCACAAAACAACCATAAGTTGATATTTTTGTGAATCGAGTATTTCAGCAAAACTACTGCAGTAAGAAAGTTA,-5.27 ± 0.97
10,AATGTTGTTGATGCAACCATAAAGTGATATTTAATAATTATTTATAATCAGCAACTTAACCACCAACCATATATTGATATCTCAAAAACAAAACAACCATAAGTTGATATTTTTGTGAATCGAGTATTTCAGCAAAACTACTGCAGTAAGAA,-2.83 ± 0.93
11,AATGTTGTTGATGCAACCATAAAGTGATATTTAATAATTATTTATAATCAGCAACTTAACCACCAACCATATATTGATATCTCACAAAACAACCATAAGTTGATATTTTTGTGAATCGAGTATTTCAGCAAAACTACTGCAGTAAGAAAGTT,-4.85 ± 1.1
12,AATGTTGTTGATGCAACCATAAAGTGATATTTAATAATTATTTATAATCAGCAACTTAACCACCCCCACCAACGCGCGGTCGCGAGACACCCCACCAACGCCTGGTCGCGGGGGTGTCCGATCTGATTTCAGCAAAACTACTGCAGTAAGAA,-6.56 ± 0.76
13,AATGTTGTTGATGCAACCATAAAGTGATATTTAATAATTATTTATAATCAGCAACTTAACCCAACCATATATTGATATCTCACAAAAACAAAACAACCATAAGTTGATATTTTTGTGAATCGAGTATTTCAGCAAAACTACTGCAGTAAGAA,-3.11 ± 0.98
14,AATGTTGTTGATGCAACCATAAAGTGATATTTAATAATTATTTATAATCAGCAACTTAACCCAACCATATATTGATATCTCACAAAACAACCATAAGTTGATATTTTTGTGAATCGAGTATTTCAGCAAAACTACTGCAGTAAGAAAGTTAC,-7.05 ± 1.7
15,AATGTTGTTGATGCAACCATAAAGTGATATTTAATAATTATTTATAATCAGCAACTTAACCCACCCCACCAACGCGCGGTCGCGAGACACCCCACCAACGCCTGGTCGCGGGGGTGTCCGATCTGATTTCAGCAAAACTACTGCAGTAAGAA,-6.3 ± 1.9
16,AATGTTGTTGATGCAACCATAAAGTGATATTTAATAATTATTTATAATCAGCAACTTACAACACCCCACCAACGCGCGGTCGCGAGACACCCCACCAACGCCTGGTCGCGGGGGTGTCCGATCTGATTTCAGCAAAACTACTGCAGTAAGAA,-5.66 ± 1.2
17,AATGTTGTTGATGCAACCATAAAGTGATATTTAATAATTATTTATAATCAGCAACTTCCAACACCCCACCAACGCGCGGTCGCGAGACACCCCACCAACGCCTGGTCGCGGGGGTGTCCGATCTGATTTCAGCAAAACTACTGCAGTAAGAA,-4.36 ± 1.2
